Publication doi:10.1101/219642 (bioRxiv, 2017)

B1: GST fusion protein containing only the Habc domain (1-146) of Stx3 (domain or fragment)
chain: MKDRLEQLKAKQLTQDDDTDEVEIAIDNTAFMDEFFSEIEETRLNIDKISEHVEEAKKLYSIILSAPIPEPKTKDDLEQLTTEIKKRANNVRNKLKSMEKHIEEDEVRSSADLRIRKSQHSVLSRKFVEVMTKYNEAQVDFRERSK
B2: GST fusion protein of the constitutively open mutant of the cytoplasmic region of Stx3 (L165A/E166A) (domain or fragment)
chain: MKDRLEQLKAKQLTQDDDTDEVEIAIDNTAFMDEFFSEIEETRLNIDKISEHVEEAKKLYSIILSAPIPEPKTKDDLEQLTTEIKKRANNVRNKLKSMEKHIEEDEVRSSADLRIRKSQHSVLSRKFVEVMTKYNEAQVDFRERSKGRIQRQLEITGKKTTDEEAAEMLESGNPAIFTSGIIDSQISKQALSEIEGRHKDIVRLESSIKELHDMFMDIAMLVENQGEMLDNIELNVMHTVDHVEKARDETKRAMKYQGQARKKLI

Key:
[1] = target: ubiquitin on ubiquitin-coated agarose beads (UniProt P0CG47 1-76, coupled to agarose beads); test: pull-down
[2] = target: Purified bovine ubiquitin (bovine, UniProt P0CG53 1-76); test: SPR

| Binder | binding result [1] | Kd [2] |
| --- | --- | --- |
| B1 | binds | 1360 µM |
| B2 | binds | – |
